Measurements as given in publication PMC6098094.

Tests used:
Test in all cases: two-hybrid; quantitative yeast two-hybrid, para-nitrophenyl-alpha-galactoside assay; interaction strength as percentage of wildtype GAL4BD-UBXD1; three independent experiments with five yeast transformands per condition
Gal4BD-UBXD1ΔVIM = target: Gal4BD-UBXD1ΔVIM
Gal4BD-UBXD1ΔUBX = target: Gal4BD-UBXD1ΔUBX
Gal4BD-UBXD1ΔPUB = target: Gal4BD-UBXD1ΔPUB

Substance: Gal4AD-p97 (from UniProt P55072 1-806) (natural protein)
- interaction strength as percentage of wildtype GAL4BD-UBXD1 (% of wildtype GAL4BD-UBXD1) (Gal4BD-UBXD1ΔVIM): 8.1
- interaction strength as percentage of wildtype GAL4BD-UBXD1 (% of wildtype GAL4BD-UBXD1) (Gal4BD-UBXD1ΔUBX): 29.2
- interaction strength as percentage of wildtype GAL4BD-UBXD1 (% of wildtype GAL4BD-UBXD1) (Gal4BD-UBXD1ΔPUB): 13.8
